Experiment in all cases: SPR, captured antibody;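 note: antibody captured on a sensor chip, Fcγ receptor flowed over at 25 °C, receptor binding normalized to the captured antibody amount and expressed relative to the reference antibody ×100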
(In general: Surface plasmon resonance follows binding to a sensor surface in real time, without labels.)

The target in assay [1] is T1, human FcγRIa (human, UniProt P12314 16-292, limits assumed).
T1 construct: also called FcgRIa; hFcgRIa

The target of assay [2] is T2, human FcγRIIa(R) (human, UniProt P12318 36-217).
T2 construct: also called FcgRIIaR; hFcgRIIa(R)
T2 chain: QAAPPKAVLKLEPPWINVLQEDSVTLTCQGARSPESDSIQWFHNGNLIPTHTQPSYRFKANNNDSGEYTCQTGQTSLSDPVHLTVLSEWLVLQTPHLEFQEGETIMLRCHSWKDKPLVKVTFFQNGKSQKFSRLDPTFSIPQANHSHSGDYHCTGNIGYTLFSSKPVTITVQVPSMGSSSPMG

The target in assay [3] is T3, human FcγRIIa(H) (human, UniProt P12318 36-217).
T3 construct: also called FcgRIIaH; hFcgRIIa(H)
T3 sequence: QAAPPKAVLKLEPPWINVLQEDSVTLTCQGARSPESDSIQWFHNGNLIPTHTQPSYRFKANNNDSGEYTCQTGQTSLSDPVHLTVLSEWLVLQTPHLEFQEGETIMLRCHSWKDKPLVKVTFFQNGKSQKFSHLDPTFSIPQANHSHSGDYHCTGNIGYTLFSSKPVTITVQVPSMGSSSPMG

In assay [4] the target is T4, human FcγRIIb (human, UniProt P31994 43-217, limits assumed).
T4 construct: also called FcgRIIb; hFcgRIIb
T4 sequence: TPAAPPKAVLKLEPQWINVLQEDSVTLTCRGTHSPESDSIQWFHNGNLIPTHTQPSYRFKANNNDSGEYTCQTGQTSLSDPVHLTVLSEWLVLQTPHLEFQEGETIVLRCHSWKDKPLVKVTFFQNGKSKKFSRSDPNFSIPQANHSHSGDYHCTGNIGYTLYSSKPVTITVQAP

T1 sequence (P12314 16-292 limits assumed): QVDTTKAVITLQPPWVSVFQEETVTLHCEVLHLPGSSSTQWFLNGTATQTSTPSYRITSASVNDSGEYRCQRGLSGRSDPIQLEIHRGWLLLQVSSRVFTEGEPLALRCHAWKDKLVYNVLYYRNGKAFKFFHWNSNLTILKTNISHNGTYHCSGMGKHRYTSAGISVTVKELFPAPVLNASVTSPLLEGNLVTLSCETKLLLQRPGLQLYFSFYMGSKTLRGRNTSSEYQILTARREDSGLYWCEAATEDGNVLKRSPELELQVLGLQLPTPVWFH

B1: GpH7-B3 A327R/GpL16-k0 (antibody, human IgG1)
heavy: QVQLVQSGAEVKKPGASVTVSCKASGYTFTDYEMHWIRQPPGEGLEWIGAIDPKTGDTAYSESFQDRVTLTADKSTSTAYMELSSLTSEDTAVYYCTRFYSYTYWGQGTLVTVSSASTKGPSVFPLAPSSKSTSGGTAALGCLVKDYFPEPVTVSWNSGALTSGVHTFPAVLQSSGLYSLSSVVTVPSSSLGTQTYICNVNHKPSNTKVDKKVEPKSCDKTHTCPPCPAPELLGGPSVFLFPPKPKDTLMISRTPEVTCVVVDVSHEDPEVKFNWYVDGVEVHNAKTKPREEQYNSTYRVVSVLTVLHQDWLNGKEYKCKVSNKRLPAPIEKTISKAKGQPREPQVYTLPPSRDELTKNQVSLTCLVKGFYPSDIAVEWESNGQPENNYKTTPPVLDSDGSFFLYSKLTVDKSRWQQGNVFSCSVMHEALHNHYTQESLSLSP
light: DIVMTQSPLSLPVTPGEPASISCQASESLVHSNRNTYLHWYLQKPGQSPQLLIYKVSNRFSGVPDRFSGSGSGTDFTLKISRVEAEDVGVYYCSQNTHVPPTFGQGTKVEIE
notes: B3 variant; copies: 2 + 2
Take B1: the relative binding activity was 51 % of GpH7-B3/GpL16-k0 in assay [1], -11 % of GpH7-B3/GpL16-k0 in assay [2], -2 % of GpH7-B3/GpL16-k0 in assay [3] and -3 % of GpH7-B3/GpL16-k0 in assay [4].

B2: GpH7-B3 A327V/GpL16-k0 (antibody, human IgG1)
heavy: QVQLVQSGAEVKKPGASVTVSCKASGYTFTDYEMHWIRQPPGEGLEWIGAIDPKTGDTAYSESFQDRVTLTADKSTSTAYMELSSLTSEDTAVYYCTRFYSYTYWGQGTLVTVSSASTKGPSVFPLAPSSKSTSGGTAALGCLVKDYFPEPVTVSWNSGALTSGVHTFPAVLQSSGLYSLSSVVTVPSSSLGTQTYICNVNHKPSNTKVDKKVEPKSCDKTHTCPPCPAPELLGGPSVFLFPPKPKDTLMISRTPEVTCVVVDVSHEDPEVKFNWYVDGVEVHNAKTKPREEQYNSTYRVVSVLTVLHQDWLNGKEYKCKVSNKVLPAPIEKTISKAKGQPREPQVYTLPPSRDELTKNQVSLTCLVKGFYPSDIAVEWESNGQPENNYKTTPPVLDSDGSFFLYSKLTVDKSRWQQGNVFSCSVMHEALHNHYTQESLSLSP
light: DIVMTQSPLSLPVTPGEPASISCQASESLVHSNRNTYLHWYLQKPGQSPQLLIYKVSNRFSGVPDRFSGSGSGTDFTLKISRVEAEDVGVYYCSQNTHVPPTFGQGTKVEIE
notes: B3 variant; copies: 2 + 2
Turning to B2, the relative binding activity in assay [1] was 97 % of GpH7-B3/GpL16-k0; in assay [2] it was 46 % of GpH7-B3/GpL16-k0; in assay [3], 17 % of GpH7-B3/GpL16-k0; in assay [4], 43 % of GpH7-B3/GpL16-k0.

B3: GpH7-B3 A330P/GpL16-k0 (antibody, human IgG1)
heavy: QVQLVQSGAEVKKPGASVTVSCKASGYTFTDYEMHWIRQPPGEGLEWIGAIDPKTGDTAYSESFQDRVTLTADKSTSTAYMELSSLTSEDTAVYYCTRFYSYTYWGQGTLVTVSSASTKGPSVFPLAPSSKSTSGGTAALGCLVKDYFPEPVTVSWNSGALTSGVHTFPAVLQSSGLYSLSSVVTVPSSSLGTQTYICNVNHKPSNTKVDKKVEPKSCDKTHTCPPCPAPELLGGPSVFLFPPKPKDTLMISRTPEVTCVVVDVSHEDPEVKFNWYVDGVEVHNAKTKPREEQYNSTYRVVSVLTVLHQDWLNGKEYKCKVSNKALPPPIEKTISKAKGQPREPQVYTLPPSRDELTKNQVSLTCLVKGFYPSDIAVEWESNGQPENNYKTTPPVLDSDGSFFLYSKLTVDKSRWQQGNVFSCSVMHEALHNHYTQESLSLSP
light: DIVMTQSPLSLPVTPGEPASISCQASESLVHSNRNTYLHWYLQKPGQSPQLLIYKVSNRFSGVPDRFSGSGSGTDFTLKISRVEAEDVGVYYCSQNTHVPPTFGQGTKVEIE
notes: B3 variant; copies: 2 + 2
With B3, the relative binding activity in assay [1] was 87 % of GpH7-B3/GpL16-k0; in assay [2], 42 % of GpH7-B3/GpL16-k0; in assay [3] it was 25 % of GpH7-B3/GpL16-k0; in assay [4], 39 % of GpH7-B3/GpL16-k0.

B4: GpH7-B3 D270A/GpL16-k0 (antibody, human IgG1)
heavy: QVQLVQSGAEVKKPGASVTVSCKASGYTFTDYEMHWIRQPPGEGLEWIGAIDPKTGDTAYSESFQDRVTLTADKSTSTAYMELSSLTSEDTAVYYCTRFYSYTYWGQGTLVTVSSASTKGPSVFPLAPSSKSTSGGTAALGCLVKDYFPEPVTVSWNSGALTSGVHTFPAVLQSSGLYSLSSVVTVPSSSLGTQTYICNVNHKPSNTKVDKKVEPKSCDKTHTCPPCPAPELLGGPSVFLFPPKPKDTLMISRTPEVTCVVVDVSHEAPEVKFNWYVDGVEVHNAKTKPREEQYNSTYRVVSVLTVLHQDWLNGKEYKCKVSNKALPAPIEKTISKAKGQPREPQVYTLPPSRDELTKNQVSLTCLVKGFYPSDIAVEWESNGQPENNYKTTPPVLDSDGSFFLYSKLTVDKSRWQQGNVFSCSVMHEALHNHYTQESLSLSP
light: DIVMTQSPLSLPVTPGEPASISCQASESLVHSNRNTYLHWYLQKPGQSPQLLIYKVSNRFSGVPDRFSGSGSGTDFTLKISRVEAEDVGVYYCSQNTHVPPTFGQGTKVEIE
notes: B3 variant; copies: 2 + 2
As for B4, the relative binding activity in assay [1] is 87 % of GpH7-B3/GpL16-k0; in assay [2], 3 % of GpH7-B3/GpL16-k0; in assay [3], 66 % of GpH7-B3/GpL16-k0; in assay [4], 5 % of GpH7-B3/GpL16-k0.

B5: GpH7-B3 A330S/GpL16-k0 (antibody, human IgG1)
heavy: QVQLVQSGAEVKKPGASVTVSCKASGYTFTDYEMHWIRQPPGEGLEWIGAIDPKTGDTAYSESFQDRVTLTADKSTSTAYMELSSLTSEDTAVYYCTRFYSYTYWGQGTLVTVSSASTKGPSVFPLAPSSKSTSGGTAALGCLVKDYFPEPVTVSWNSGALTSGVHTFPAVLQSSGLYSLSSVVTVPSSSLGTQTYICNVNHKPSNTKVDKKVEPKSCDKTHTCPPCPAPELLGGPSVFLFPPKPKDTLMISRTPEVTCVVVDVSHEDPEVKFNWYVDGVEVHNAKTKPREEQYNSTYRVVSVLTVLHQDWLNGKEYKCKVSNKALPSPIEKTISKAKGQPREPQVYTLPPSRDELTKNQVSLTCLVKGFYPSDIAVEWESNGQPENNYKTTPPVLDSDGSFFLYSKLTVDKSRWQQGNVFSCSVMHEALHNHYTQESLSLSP
light: DIVMTQSPLSLPVTPGEPASISCQASESLVHSNRNTYLHWYLQKPGQSPQLLIYKVSNRFSGVPDRFSGSGSGTDFTLKISRVEAEDVGVYYCSQNTHVPPTFGQGTKVEIE
notes: B3 variant; copies: 2 + 2
For the molecule B5, the relative binding activity in assay [1] is 58 % of GpH7-B3/GpL16-k0; in assay [2], 0 % of GpH7-B3/GpL16-k0; in assay [3], 0 % of GpH7-B3/GpL16-k0; in assay [4] it was -3 % of GpH7-B3/GpL16-k0.

B6: GpH7-B3 A327Y/GpL16-k0 (antibody, human IgG1)
heavy: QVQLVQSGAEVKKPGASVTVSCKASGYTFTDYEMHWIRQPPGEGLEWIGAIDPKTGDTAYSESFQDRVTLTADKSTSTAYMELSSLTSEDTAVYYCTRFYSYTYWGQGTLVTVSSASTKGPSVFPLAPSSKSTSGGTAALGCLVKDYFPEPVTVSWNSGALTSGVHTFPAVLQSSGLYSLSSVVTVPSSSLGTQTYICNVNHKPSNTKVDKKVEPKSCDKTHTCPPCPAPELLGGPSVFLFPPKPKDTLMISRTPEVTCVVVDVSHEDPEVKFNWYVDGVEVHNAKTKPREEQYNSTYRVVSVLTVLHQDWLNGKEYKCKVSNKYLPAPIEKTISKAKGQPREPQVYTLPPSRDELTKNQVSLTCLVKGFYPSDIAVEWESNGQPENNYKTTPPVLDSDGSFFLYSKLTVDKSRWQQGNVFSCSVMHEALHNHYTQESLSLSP
light: DIVMTQSPLSLPVTPGEPASISCQASESLVHSNRNTYLHWYLQKPGQSPQLLIYKVSNRFSGVPDRFSGSGSGTDFTLKISRVEAEDVGVYYCSQNTHVPPTFGQGTKVEIE
notes: B3 variant; copies: 2 + 2
In the case of B6, the relative binding activity was 97 % of GpH7-B3/GpL16-k0 in assay [1], 17 % of GpH7-B3/GpL16-k0 in assay [2], 26 % of GpH7-B3/GpL16-k0 in assay [3] and 18 % of GpH7-B3/GpL16-k0 in assay [4].

B7: GpH7-B3 A327W/GpL16-k0 (antibody, human IgG1)
heavy: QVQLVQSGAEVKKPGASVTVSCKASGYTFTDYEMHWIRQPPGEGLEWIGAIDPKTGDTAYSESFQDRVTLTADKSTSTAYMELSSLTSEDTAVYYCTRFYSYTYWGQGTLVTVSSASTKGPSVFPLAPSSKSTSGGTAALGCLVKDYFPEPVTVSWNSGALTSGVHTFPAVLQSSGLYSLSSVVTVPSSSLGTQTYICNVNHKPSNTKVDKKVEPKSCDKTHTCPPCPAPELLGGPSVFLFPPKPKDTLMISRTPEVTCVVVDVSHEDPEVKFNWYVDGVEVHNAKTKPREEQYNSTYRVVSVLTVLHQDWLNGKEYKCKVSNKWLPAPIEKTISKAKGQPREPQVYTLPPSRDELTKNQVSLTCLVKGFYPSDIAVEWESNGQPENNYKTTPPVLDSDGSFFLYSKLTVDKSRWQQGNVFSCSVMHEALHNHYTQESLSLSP
light: DIVMTQSPLSLPVTPGEPASISCQASESLVHSNRNTYLHWYLQKPGQSPQLLIYKVSNRFSGVPDRFSGSGSGTDFTLKISRVEAEDVGVYYCSQNTHVPPTFGQGTKVEIE
notes: B3 variant; copies: 2 + 2
For B7, the relative binding activity in assay [1] is 100 % of GpH7-B3/GpL16-k0; in assay [2], 34 % of GpH7-B3/GpL16-k0; in assay [3], 21 % of GpH7-B3/GpL16-k0; in assay [4], 34 % of GpH7-B3/GpL16-k0.

B8: GpH7-B3 A327T/GpL16-k0 (antibody, human IgG1)
heavy: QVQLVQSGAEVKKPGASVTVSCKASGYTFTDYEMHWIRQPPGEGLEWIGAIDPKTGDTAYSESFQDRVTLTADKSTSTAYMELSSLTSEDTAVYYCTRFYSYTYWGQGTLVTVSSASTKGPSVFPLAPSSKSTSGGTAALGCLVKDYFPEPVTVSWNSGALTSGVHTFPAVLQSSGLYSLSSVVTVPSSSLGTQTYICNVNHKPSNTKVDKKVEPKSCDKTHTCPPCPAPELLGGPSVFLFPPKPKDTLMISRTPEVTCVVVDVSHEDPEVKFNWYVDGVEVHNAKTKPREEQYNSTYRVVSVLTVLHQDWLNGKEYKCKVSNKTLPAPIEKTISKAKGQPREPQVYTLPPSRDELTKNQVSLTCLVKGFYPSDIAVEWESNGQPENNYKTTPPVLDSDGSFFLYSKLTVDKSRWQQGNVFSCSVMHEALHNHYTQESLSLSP
light: DIVMTQSPLSLPVTPGEPASISCQASESLVHSNRNTYLHWYLQKPGQSPQLLIYKVSNRFSGVPDRFSGSGSGTDFTLKISRVEAEDVGVYYCSQNTHVPPTFGQGTKVEIE
notes: B3 variant; copies: 2 + 2
With B8, the relative binding activity in assay [1] was 64 % of GpH7-B3/GpL16-k0; in assay [2], 27 % of GpH7-B3/GpL16-k0; in assay [3] it was 12 % of GpH7-B3/GpL16-k0; in assay [4], 37 % of GpH7-B3/GpL16-k0.

B9: GpH7-B3 A327S/GpL16-k0 (antibody, human IgG1)
heavy: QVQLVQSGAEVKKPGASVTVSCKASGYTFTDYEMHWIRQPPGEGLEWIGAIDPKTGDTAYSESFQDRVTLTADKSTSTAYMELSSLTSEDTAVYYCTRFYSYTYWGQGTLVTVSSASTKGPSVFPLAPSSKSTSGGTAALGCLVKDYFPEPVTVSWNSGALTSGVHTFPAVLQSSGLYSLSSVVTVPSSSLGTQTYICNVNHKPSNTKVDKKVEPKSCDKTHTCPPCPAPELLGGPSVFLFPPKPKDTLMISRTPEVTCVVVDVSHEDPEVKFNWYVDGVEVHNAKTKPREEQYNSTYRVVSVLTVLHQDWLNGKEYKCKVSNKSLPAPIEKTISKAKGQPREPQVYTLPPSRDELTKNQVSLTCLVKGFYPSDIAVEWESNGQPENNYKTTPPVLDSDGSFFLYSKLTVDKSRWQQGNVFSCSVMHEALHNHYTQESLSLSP
light: DIVMTQSPLSLPVTPGEPASISCQASESLVHSNRNTYLHWYLQKPGQSPQLLIYKVSNRFSGVPDRFSGSGSGTDFTLKISRVEAEDVGVYYCSQNTHVPPTFGQGTKVEIE
notes: B3 variant; copies: 2 + 2
As for B9, the relative binding activity is 88 % of GpH7-B3/GpL16-k0 in assay [1], 59 % of GpH7-B3/GpL16-k0 in assay [2], 51 % of GpH7-B3/GpL16-k0 in assay [3] and 62 % of GpH7-B3/GpL16-k0 in assay [4].

The values are drawn from patent US20200199241A1 (Chugai, published 2020).
